Test: label from the status in PepcDB records

Sequence	protein production
MEKSNLYKVDEFGVKNYNYGILAILSFVLFAFINISLGYVTFVAETAVEGSPVKNYADAFWLMLMSSTTIGFGDVYPITLEGRIAVFTMFILGVGILGGVGAVFANKIFGFADTNIKNRELRQQNEEILLQNDKIYQKLTALEDKLEAFNRETK	failed
MTAIRFDHVDVIFGTHTKEALKLLDQGLGRAEILKRTGQVLGVEDACLDVNRGEICVLMGLSGSGKSSLLRCINGLNKVSRGKLLIEHEGSQVDIANCSPATLKAMRTKRIAMVFQKFALMPWLTVAENVGFGLEMQGRPAAERKKLIDEKLELVGLSQWRDKRPDSLSGGMQQRVGLARALAMDGDILLMDEPFSALDPLIRQQLQDELLVLQRQLHKTIVFVSHDLDEALKIGTRIAIMKDGRIIQHGKPEEIVLSPADDYVRTFVAHTNPLNVLCGQSLMRGLDQCIRQNDEICFDQGRDCWIGLSEGDVLKGARQGSNVIDLQRWRQGDPVEKLRREPTLVDVSIRMRDALQIRYQTGHKLVLQEQDRVVGVLGDSELYHALLGKN	failed
MALVPVYCLCRQPYNVNHFMIECGLCQDWFHGSCVGIEEENAVDIDIYHCPDCEAVFGPSIMKNWH	not failed
MNVSKILVSPTVTTNVLRIFAPRLPQIGASLLVQKKWALRSKKFYRFYSEKNSGEMPPKKEADSSGKASNKSTISSIDNSQPPPPSNTNDKTKQANVAVSHAMLATREQEANKDLTSPDAQAAFYKLLLQSNYPQYVVSRFETPGIASSPECMELYMEALQRIGRHSEADAVRQNLLTASSAGAVNPSLASSSSNQSGYHGNFPSMYSPLYGSRKEPLHVVVSESTFTVVSRWVKWLLVFGILTYSFSEGFKYITENTTLLKSSEVADKSVDVAKTNVKFDDVCGCDEARAELEEIVDFLKDPTKYESLGGKLPKGVLLTGPPGTGKTLLARATAGEAGVDFFFMSGSEFDEVYVGVGAKRIRDLFAQARSRAPAIIFIDELDAIGGKRNPKDQAYAKQTLNQLLVELDGFSQTSGIIIIGATNFPEALDKALTRPGRFDKVVNVDLPDVRGRADILKHHMKKITLADNVDPTIIARGTPGLSGAELANLVNQAAVYACQKNAVSVDMSHFEWAKDKILMGAERKTMVLTDAARKATAFHEAGHAIMAKYTNGATPLYKATILPRGRALGITFQLPEMDKVDITKRECQARLDVCMGGKIAEELIYGKDNTTSGCGSDLQSATGTARAMVTQYGMSDDVGPVNLSENWESWSNKIRDIADNEVIELLKDSEERARRLLTKKNVELHRLAQGLIEYETLDAHEIEQVCKGEKLDKLKTSTNTVVEGPDSDERKDIGDDKPKIPTMLNA	failed
MQEQWGYVAISFIIGIAIAFSSSLLLIVFCLFLNVFFCLYRTSRKTFIFCIVACFSSVIYTSYVQTWNKPLGESYGVTRGVIQNTPLVNGDRLSFQFEDQNKNIVQLSYRIKSALEKKKMQQLYAGISCVFEGERKEPETARNFHGFNYRDYLYKQHIHFTFEATYISECYKTSLSLTQWILLLRQQAISKVTEMFPEQSGAFMNALLFGDRQQMTFEVEEQYQQFGLVHLLAISGSHIVLLMVIVYFILLRSGATREVATICLIVCIPLYMVLAGASPSVIRASITGVLMLIAFMCSIRLSSLDALSVTAICMLIYDPYLVFNIGFQFSFVGSFALLLSAPLLLGSSNGVIRNSIYISIISQLVSTPILLYHFGYFSPYSILLNLLYVPFLSIIVLPCSIIILLCMPIVPFLAKGFADVLSIGLSMSNDFLSYCESLPFTQLIFGETPLNLVAVYCASIVSILMVWERRAPKKIVCIVASVFLFISTCHYIYPYFRGSGSVTFIDVGQGDAILIRLPYDKGIYLIDTGGTLRVNKEEWQQKKHEFSVGNDVLIPFLQKEGIKTIDKLIVTHGDADHIGAAQELLSYIPVKEVVFGRKGKDAVLEKVVKKQALEKEMKITEVGEGASWSVNEAEFFVLAPKGKEKSENNASIVIWAKFGGLKWLFTGDLEEEGEKILVEAYPDLQVDVLKVAHHGSNTSSIEPFLNVMQPRVAIISVGKQNRYGHPHKEVIERFEKMGSAIWRTDKQGAISYVFKGENGTFKSKITYDKTHNR	failed
TDQAITFDDVLLVPSYNHHESRRVVETTSTDRLGKLTLNLPVISANMDTITESNMANFMHSKGAMGALHRFMTIEENIQEFKKCKGPVFVSVGCTENELQRAEALRDAGADFFCVDVAHAHAKYVGKTLKSLRQLLGSRCIMAGNVATYAGADYLASCGADIIKAGIGGGSVCSTRIKTGFGVPMLTCIQDCSRADRSIVADGGIKTSGDIVKALAFGADFVMIGGMLAGSAPTPGEVFQKDDGSKVKRYRGMASREAQEAFLGQMHEWKTAEGVATEVPFKENPDGIIADIIGGLRSGLTYAGADSISELQRKLNYVIVTQAGRIESLPHKLLEG	not failed
